Biological target: human IL-15 expressed from plasmid hIL15tPA6 (human IL-15opt1-tPA6; improved IL-15 with tPA6 SIGPRO peptide) (human, UniProt P40933 49-162)
Test: cell-based or functional assay

human IL-15 expressed from plasmid hIL15tPA6 (human IL-15opt1-tPA6; improved IL-15 with tPA6 SIGPRO peptide), sequence (P40933 other isoform, or with tags, fused parts or gaps limits assumed): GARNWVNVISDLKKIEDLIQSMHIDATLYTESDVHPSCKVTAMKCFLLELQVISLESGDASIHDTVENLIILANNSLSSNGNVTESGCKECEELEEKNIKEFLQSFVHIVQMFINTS

| total increase in IL-15 steady-state levels on co-expression in 293 cells, ELISA (FIG. 45A) [fold] | Binder |
| --- | --- |
| 7 | human soluble IL-15 Receptor alpha (extracellular part; plasmid AG98, hu sIL15RaOPT) (receptor) ITCPPPMSVEHADIWVKSYSLYSRERYICNSGFKRKAGTSSLTECVLNKATNVAHWTTPSLKCIRDPALVHQRPAPPSTVTTAGVTPQPESLSPSGKEPAASSPSSNNTAATTAAIVPGSQLMPSKSPSTGTTEISSHESSHGTPSQTTAKNWELTASASHQPPGVYPQGHSDTT |
| 4 | human IL-15 Receptor alpha, whole / full length (plasmid AG79, huIL15RaOPT) (receptor) ITCPPPMSVEHADIWVKSYSLYSRERYICNSGFKRKAGTSSLTECVLNKATNVAHWTTPSLKCIRDPALVHQRPAPPSTVTTAGVTPQPESLSPSGKEPAASSPSSNNTAATTAAIVPGSQLMPSKSPSTGTTEISSHESSHGTPSQTTAKNWELTASASHQPPGVYPQGHSDTTVAISTSTVLLCGLSAVSLLACYLKSRQTPPLASVEMEAMEALPVTWGTSSRDEDLENCSHHL |
